Ends that are not written are not given here. * marks the point of attachment. C16 diacid = O=C(O)CCCCCCCCCCCCCCC(=O)*
Biological target: T1, human GIP receptor (human, UniProt P48546 22-466)
T1 sequence (looked up): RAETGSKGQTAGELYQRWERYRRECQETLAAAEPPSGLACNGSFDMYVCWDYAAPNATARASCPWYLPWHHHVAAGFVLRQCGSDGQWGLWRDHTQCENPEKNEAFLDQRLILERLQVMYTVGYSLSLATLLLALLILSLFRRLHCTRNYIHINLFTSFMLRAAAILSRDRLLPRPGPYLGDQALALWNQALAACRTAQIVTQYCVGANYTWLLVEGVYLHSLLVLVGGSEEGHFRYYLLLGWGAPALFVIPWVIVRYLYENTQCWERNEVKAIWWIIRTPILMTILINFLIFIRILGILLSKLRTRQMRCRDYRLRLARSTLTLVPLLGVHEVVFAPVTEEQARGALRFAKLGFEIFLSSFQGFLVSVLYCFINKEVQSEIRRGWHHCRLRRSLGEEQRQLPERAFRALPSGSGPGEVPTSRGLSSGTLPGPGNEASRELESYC
Experiment: cell-based or functional assay

B1: AT305 [hGIP(3-30)NH2[M14K]-C16diacid/14] (peptide)
peptide: EGTFISDYSIAK(C16 diacid)DKIHQQDFVNWLLAQK-NH2
modifications: N-terminus assumed
SMILES: CC[C@H](C)[C@H](NC(=O)[C@H](CO)NC(=O)[C@H](Cc1ccc(O)cc1)NC(=O)[C@H](CC(=O)O)NC(=O)[C@H](CO)NC(=O)[C@@H](NC(=O)[C@H](Cc1ccccc1)NC(=O)[C@@H](NC(=O)CNC(=O)[C@@H](N)CCC(=O)O)[C@@H](C)O)[C@@H](C)CC)C(=O)N[C@@H](C)C(=O)N[C@@H](CCCCNC(=O)CCCCCCCCCCCCCCC(=O)O)C(=O)N[C@@H](CC(=O)O)C(=O)N[C@@H](CCCCN)C(=O)N[C@H](C(=O)N[C@@H](Cc1c[nH]cn1)C(=O)N[C@@H](CCC(N)=O)C(=O)N[C@@H](CCC(N)=O)C(=O)N[C@@H](CC(=O)O)C(=O)N[C@@H](Cc1ccccc1)C(=O)N[C@H](C(=O)N[C@@H](CC(N)=O)C(=O)N[C@@H](Cc1c[nH]c2ccccc12)C(=O)N[C@@H](CC(C)C)C(=O)N[C@@H](CC(C)C)C(=O)N[C@@H](C)C(=O)N[C@@H](CCC(N)=O)C(=O)N[C@@H](CCCCN)C(N)=O)C(C)C)[C@@H](C)CC
Q: How did the “cAMP agonism, EC50 (log)” value turn out when B1 was run?
A: -8.1 log M

Q: What about the “cAMP agonism, Emax” value of the same binder?
A: 12%

Q: What about the “cAMP agonism, nM (EC50)” value of the same binder?
A: 8 nM

Q: What about the “cAMP antagonism, log (IC50)” value of the same binder?
A: -6.8 log M

Q: And the “cAMP antagonism, nM (IC50)” value?
A: 166 nM

B2: AT306 [hGIP(3-30)NH2[D15K]-C16diacid/15] (peptide)
peptide: EGTFISDYSIAMK(C16 diacid)KIHQQDFVNWLLAQK-NH2
modifications: N-terminus assumed
SMILES: CC[C@H](C)[C@H](NC(=O)[C@H](CO)NC(=O)[C@H](Cc1ccc(O)cc1)NC(=O)[C@H](CC(=O)O)NC(=O)[C@H](CO)NC(=O)[C@@H](NC(=O)[C@H](Cc1ccccc1)NC(=O)[C@@H](NC(=O)CNC(=O)[C@@H](N)CCC(=O)O)[C@@H](C)O)[C@@H](C)CC)C(=O)N[C@@H](C)C(=O)N[C@@H](CCSC)C(=O)N[C@@H](CCCCNC(=O)CCCCCCCCCCCCCCC(=O)O)C(=O)N[C@@H](CCCCN)C(=O)N[C@H](C(=O)N[C@@H](Cc1c[nH]cn1)C(=O)N[C@@H](CCC(N)=O)C(=O)N[C@@H](CCC(N)=O)C(=O)N[C@@H](CC(=O)O)C(=O)N[C@@H](Cc1ccccc1)C(=O)N[C@H](C(=O)N[C@@H](CC(N)=O)C(=O)N[C@@H](Cc1c[nH]c2ccccc12)C(=O)N[C@@H](CC(C)C)C(=O)N[C@@H](CC(C)C)C(=O)N[C@@H](C)C(=O)N[C@@H](CCC(N)=O)C(=O)N[C@@H](CCCCN)C(N)=O)C(C)C)[C@@H](C)CC
Q: B2 was tested. Which “cAMP agonism, EC50 (log)” value did it give?
A: -7.9 log M

Q: And the “cAMP agonism, Emax” value?
A: 6.6%

Q: And the “cAMP agonism, nM (EC50)” value?
A: 13 nM

Q: And the “cAMP antagonism, log (IC50)” value?
A: -7.3 log M

Q: What about the “cAMP antagonism, nM (IC50)” value of the same binder?
A: 53 nM

B3: AT304 [hGIP(3-30)NH2[A13K]-C16diacid/13] (peptide)
peptide: EGTFISDYSIK(C16 diacid)MDKIHQQDFVNWLLAQK-NH2
modifications: N-terminus assumed
SMILES: CC[C@H](C)[C@H](NC(=O)[C@H](CCCCN)NC(=O)[C@H](CC(=O)O)NC(=O)[C@H](CCSC)NC(=O)[C@H](CCCCNC(=O)CCCCCCCCCCCCCCC(=O)O)NC(=O)[C@@H](NC(=O)[C@H](CO)NC(=O)[C@H](Cc1ccc(O)cc1)NC(=O)[C@H](CC(=O)O)NC(=O)[C@H](CO)NC(=O)[C@@H](NC(=O)[C@H](Cc1ccccc1)NC(=O)[C@@H](NC(=O)CNC(=O)[C@@H](N)CCC(=O)O)[C@@H](C)O)[C@@H](C)CC)[C@@H](C)CC)C(=O)N[C@@H](Cc1c[nH]cn1)C(=O)N[C@@H](CCC(N)=O)C(=O)N[C@@H](CCC(N)=O)C(=O)N[C@@H](CC(=O)O)C(=O)N[C@@H](Cc1ccccc1)C(=O)N[C@H](C(=O)N[C@@H](CC(N)=O)C(=O)N[C@@H](Cc1c[nH]c2ccccc12)C(=O)N[C@@H](CC(C)C)C(=O)N[C@@H](CC(C)C)C(=O)N[C@@H](C)C(=O)N[C@@H](CCC(N)=O)C(=O)N[C@@H](CCCCN)C(N)=O)C(C)C
Q: With B3 as the binder, how does the “cAMP antagonism, log (IC50)” value read?
A: -6.7 log M

Q: And the “cAMP antagonism, nM (IC50)” value?
A: 199 nM

B4: AT307 [hGIP(3-30)NH2[I17K]-C16diacid/17] (peptide)
peptide: EGTFISDYSIAMDKK(C16 diacid)HQQDFVNWLLAQK-NH2
modifications: N-terminus assumed
SMILES: CC[C@H](C)[C@H](NC(=O)[C@H](CO)NC(=O)[C@H](Cc1ccc(O)cc1)NC(=O)[C@H](CC(=O)O)NC(=O)[C@H](CO)NC(=O)[C@@H](NC(=O)[C@H](Cc1ccccc1)NC(=O)[C@@H](NC(=O)CNC(=O)[C@@H](N)CCC(=O)O)[C@@H](C)O)[C@@H](C)CC)C(=O)N[C@@H](C)C(=O)N[C@@H](CCSC)C(=O)N[C@@H](CC(=O)O)C(=O)N[C@@H](CCCCN)C(=O)N[C@@H](CCCCNC(=O)CCCCCCCCCCCCCCC(=O)O)C(=O)N[C@@H](Cc1c[nH]cn1)C(=O)N[C@@H](CCC(N)=O)C(=O)N[C@@H](CCC(N)=O)C(=O)N[C@@H](CC(=O)O)C(=O)N[C@@H](Cc1ccccc1)C(=O)N[C@H](C(=O)N[C@@H](CC(N)=O)C(=O)N[C@@H](Cc1c[nH]c2ccccc12)C(=O)N[C@@H](CC(C)C)C(=O)N[C@@H](CC(C)C)C(=O)N[C@@H](C)C(=O)N[C@@H](CCC(N)=O)C(=O)N[C@@H](CCCCN)C(N)=O)C(C)C
Q: How did the “cAMP agonism, EC50 (log)” value turn out when B4 was run?
A: -7.9 log M

Q: And the “cAMP agonism, Emax” value?
A: 4.9%

Q: And the “cAMP agonism, nM (EC50)” value?
A: 14 nM

Q: What about the “cAMP antagonism, log (IC50)” value of the same binder?
A: -7 log M

Q: And the “cAMP antagonism, nM (IC50)” value?
A: 93 nM

B5: AT303 [hGIP(3-30)NH2[I12K]-C16diacid/12] (peptide)
peptide: EGTFISDYSK(C16 diacid)AMDKIHQQDFVNWLLAQK-NH2
modifications: N-terminus assumed
SMILES: CC[C@H](C)[C@H](NC(=O)[C@H](CCCCN)NC(=O)[C@H](CC(=O)O)NC(=O)[C@H](CCSC)NC(=O)[C@H](C)NC(=O)[C@H](CCCCNC(=O)CCCCCCCCCCCCCCC(=O)O)NC(=O)[C@H](CO)NC(=O)[C@H](Cc1ccc(O)cc1)NC(=O)[C@H](CC(=O)O)NC(=O)[C@H](CO)NC(=O)[C@@H](NC(=O)[C@H](Cc1ccccc1)NC(=O)[C@@H](NC(=O)CNC(=O)[C@@H](N)CCC(=O)O)[C@@H](C)O)[C@@H](C)CC)C(=O)N[C@@H](Cc1c[nH]cn1)C(=O)N[C@@H](CCC(N)=O)C(=O)N[C@@H](CCC(N)=O)C(=O)N[C@@H](CC(=O)O)C(=O)N[C@@H](Cc1ccccc1)C(=O)N[C@H](C(=O)N[C@@H](CC(N)=O)C(=O)N[C@@H](Cc1c[nH]c2ccccc12)C(=O)N[C@@H](CC(C)C)C(=O)N[C@@H](CC(C)C)C(=O)N[C@@H](C)C(=O)N[C@@H](CCC(N)=O)C(=O)N[C@@H](CCCCN)C(N)=O)C(C)C
Q: With B5 as the binder, how does the “cAMP agonism, EC50 (log)” value read?
A: -7.6 log M

Q: What about the “cAMP agonism, Emax” value of the same binder?
A: 24.2%

Q: What about the “cAMP agonism, nM (EC50)” value of the same binder?
A: 28 nM

Q: What about the “cAMP antagonism, log (IC50)” value of the same binder?
A: -7 log M

Q: And the “cAMP antagonism, nM (IC50)” value?
A: 90 nM

Q: How did the “cAMP antagonism, log (IC50)” value turn out when EGTFISDYSIAMDK(C16 diacid)IHQQDFVNWLLAQK-NH2 [AT370 [hGIP(3-30)NH2-C16diacid/16]] was run?
A: -7.6 log M

Q: What about the “cAMP antagonism, nM (IC50)” value of the same binder?
A: 24.9 nM

Source: patent US20200087373A1 (UNIVERSITY OF COPENHAGEN, published 2020)
